How the values were obtained:
[1] = tested on: TF-1 cells; test: Adhesion and spreading of TF-1 cells on zsig37-coated plates; assay type: cell-based; settings: addition of soluble zsig37
Protocol: The ability of zsig37 to stimulate adhesion and spreading of TF-1 cells was assayed as follows. A series of dilutions were prepared from C-terminal Glu-Glu-tagged zsig37, from 10 to 0.0625 ’g/ml, in either PBS or ELISA coating buffer (0.1 M NaCO3) and each was plated into a 96 well plate (Costar; Pleasanton, Calif.) at 100 μl/well. The plates were incubated at 37° C., 5% CO2 for 2 hours. The plates were then washed 3× with RPMI/10% FBS (RPMI 1640, 2 mM L-glutamine, 110 μg/ml sodium pyruvate, PSN and 10% heat inactivated fetal bovine serum) and allowed to block for 15 minutes.
TF-1 cells (derived from acute myeloid leukemia cells) were resuspended in RPMI/10% FBS and plated into at 10,000 cells/well into the zsig37CEE-coated 96 well plates at a final volume of 120 μl/well. The plate was incubated at 37° C. under 5% CO2 for 2 hours. The plates were then washed 3× with PBS and 200 μl/well growth media (RPMI/10% FBS, 5 ng/ml GM-CSF) was added. The cells were microscopically inspected before and after the wash.
A dye incorporation assay was also used to measure the number of adherent cells based on a colorimetric change and an increase in fluorescent signal. ALAMAR BLUE (AccuMed; Chicago, Ill.) was added to the 96 well plates and the cells were incubated at 37° C. under 5% CO2 overnight. […]

[2] = tested on: atherosclerotic rabbit femoral/iliac artery crush injury; test: Atherosclerotic Folts model, blood flow; assay type: in vivo, New Zealand White rabbits; settings: 1 mg/kg bolus, n=8, vs 1 mg/kg BSA; p=0.0305
From the text: In the present experiment the standard Folts model was modified to study restenosis in rabbits. In this design, New Zealand White rabbits that normally are not prone to atherosclerosis were fed an atherogenic diet (e.g., 2% cholesterol and 6% coconut oil) for two weeks, underwent balloon denudation of an artery segment and then were continually fed the atherogenic diet. Within three weeks, atherosclerotic plaque had accumulated in the balloon-injured area. At this time, the animal was prepped for surgery and the atherosclerotic vessel was injured via a crush procedure and a Folts model study was performed.
Eleven male New Zealand White rabbits weighing 2.0-2.5 kg were used in this study. Atherosclerosis was developed in the right iliac and femoral arteries following a protocol described by Faxon et al., Am J. Cardiol., 1984, 53:72C-76C; and Faxon et al., Atherosclerosis. 1982, 2:125-133), with the following modifications. […]
Animals were administered 100 U/kg heparin. […] The flow rate was monitored and the vessel tapped to release the thrombus when the flow rate approached 0.7 ml/min. […] Blood flow through the injured vessel was monitored for 60 minutes post bolus infusion. […] Blood pressure was monitored throughout and, prior to termination, blood samples for coagulation factors were collected. […]
Statistical Analysis. All values are expressed as mean±SEM. […]

[3] = tested on: template bleeding time; design: species or system Macaca fascicularis; settings: cynomolgus monkey, in vivo
From the text: In order to evaluate one aspect of the safety of zsig37 and its effect on template bleeding time, a pre-clinical model in Macaca fascicularis was used. Time to cessation of bleeding from standardized incisions on the animal's forearm, a procedure previously described by Wu, et al., Blood, 2002, 99:3623-3628, was employed to assess the effect of zsig37 on bleeding.
Methods. Five female and twelve male, Macaca fascicularis weighing 2.3 to 4.6 kg were used as test subjects on this project. The animals were immobilized with ketamine hydrochloride (Phoenix Scientific) administered intramuscularly at approximately 10 mg/kg. Each animal was examined, and the animal determined to be acceptable for the study. The right forearm, abdomen, ventral neck and inguinal area were shaved free of hair. The animal was transported to the surgical suite (University of Washington Regional Primate Research Center), positioned inside a heated air circulation system and placed onto isoflurane (Abbott Laboratories) inhalation anesthesia delivered through positive pressure ventilation via an endotracheal tube. […] The time to cessation of bleeding was determined and recorded for each animal. Bleeding times were determined for each animal prior to any treatment, after low molecular weight heparin (Lovenox™, Rhone Polenc, Inc.) treatment and after zsig37 treatment.

B1: zsig37: adipocyte complement related protein homolog, polypeptide of SEQ ID NO:2, inhibits collagen-mediated platelet activation and the complement pathway (protein, listed as Homo sapiens)
chain: MGSRGQGLLLAYCLLLAFASGLVLSRVPHVQGEQQEWEGTEELPSPPDHAERAEEQHEKYRPSQDQGLPASRCLRCCDPGTSMYPATAVPQINITILKGEKGDRGDRGLQGKYGKTGSAGARGHTGPKGQKGSMGAPGERCKSHYAAFSVGRKKPMHSNHYYQTVIFDTEFVNLYDHFNMFTGKFYCYVPGLYFFSLNVHTWNQKETYLHIMKNEEEVVILFAQVGDRSIMQSQSLMLELREQDQVWVRLYKGERENAIFSEELDTYITFSGYLVKHATEP
- block of cell adhesion to bound zsig37 by soluble zsig37 [1]: did not block adhesion
- blood flow in final 30 minutes [2]: continuously patent
- template bleeding time vs control (1.0 mg/kg BSA) [3]: not statistically different

Reference: patent US20060252692A1, “Inhibitors for use in hemostasis” (ZymoGenetics, Inc., priority 2002, published 2006)
